By Kd is commonly meant the constant that tells how readily two partners part at equilibrium. Higher therefore signals weaker binding.

The results in this text go back to patent US20200392203A1 (YEDA RESEARCH AND DEVELOPMENT, published 2020).

For test [1], the target named is native spike complex (glycoprotein complex, GPC) of Junin virus (JUNV) (Junin virus (JUNV)). The test is described as follows: cell-based or functional assay.
The target in test [2] is native spike complex (glycoprotein complex, GPC) of Sabia virus (SABV) (Sabia virus (SABV)). The test is described as follows: cell-based or functional assay.
The target in test [3] is T1, native spike complex (glycoprotein complex, GPC) of Machupo virus (MACV) (Machupo virus (MACV), UniProt Q6IUF7 2-496).
T1 sequence: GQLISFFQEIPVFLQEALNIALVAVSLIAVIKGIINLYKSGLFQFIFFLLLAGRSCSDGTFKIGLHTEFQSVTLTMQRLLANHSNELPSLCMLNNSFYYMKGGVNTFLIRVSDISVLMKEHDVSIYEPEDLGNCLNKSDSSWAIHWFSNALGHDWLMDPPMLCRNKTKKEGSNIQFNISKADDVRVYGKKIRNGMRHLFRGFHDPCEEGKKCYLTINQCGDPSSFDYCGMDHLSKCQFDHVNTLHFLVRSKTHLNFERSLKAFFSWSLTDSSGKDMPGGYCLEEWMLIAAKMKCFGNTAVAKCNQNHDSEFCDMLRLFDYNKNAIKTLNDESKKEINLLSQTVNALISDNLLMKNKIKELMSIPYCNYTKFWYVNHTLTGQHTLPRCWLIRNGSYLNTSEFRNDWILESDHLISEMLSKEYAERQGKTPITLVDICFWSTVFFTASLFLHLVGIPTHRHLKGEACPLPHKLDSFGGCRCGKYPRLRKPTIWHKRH
Nature of the test: cell-based or functional assay.

The target of test [4] is GP1JUNV-Fc (GP1 domain of Junin virus fused at its C' terminus to an antibody Fc portion) (Junin virus (JUNV)). The test is described as follows: SPR (Biacore T200), single cycle kinetics; […]; 1:1 model. In general terms: SPR reads the build-up and loss of mass on a sensor chip optically.
Test [5] addresses GP1MACV-Fc (GP1 domain of Machupo virus fused at its C' terminus to an antibody Fc portion) (Machupo virus (MACV)) (UniProt Q6IUF7). The description is as above.
The target of test [6] is GP1SBOV-Fc (GP1 domain of Sabia virus fused at its C' terminus to an antibody Fc portion) (Sabia virus (SABV)). The test is described as follows: SPR (Biacore T200), single-cycle kinetics; […]; 1:1 model fit.

Take “Arenacept (sAD fused at its C'-terminus to an Fc portion of IgG1) (Fc fusion)”: the results for the IC50 values (µg/ml), neutralization of pseudotyped virus in test [1] and in test [2] were 2.4 µg/mL and 3.5 µg/mL, respectively.

B1: soluble apical domain (sAD) of Neotoma albigula (White-throated woodrat) TfR1 (receptor)
chain: GSKIQVKCSAPNSVTITNASGGLYLVEYPEGYVAYSKATEVTGKLVHANFGTKKDFEDLDYAVNGSIVIVRAGKITIAEKVANAQSFNAIGVLIYKDRTKYPISRADEPLQGHSGLPSIPVQTISREAAEKLFQNMERDCPRSWNTDSSCKLELLQNRNVKLTVNNCLKE
Consider B1, for which the “pseudovirus neutralisation, IC50 (read off the curve)” value in test [3] is approximately 10 nM. Besides, the Kd in test [4] turned out to be 1000 nM; in test [5], 4 nM; in test [6], 63 nM.
